T1: TC-SND1 (16-339aa) (UniProt Q7KZF4 16-339, FlAsH-EDT2 labelling reagent on the tetracysteine tag)
T1 sequence: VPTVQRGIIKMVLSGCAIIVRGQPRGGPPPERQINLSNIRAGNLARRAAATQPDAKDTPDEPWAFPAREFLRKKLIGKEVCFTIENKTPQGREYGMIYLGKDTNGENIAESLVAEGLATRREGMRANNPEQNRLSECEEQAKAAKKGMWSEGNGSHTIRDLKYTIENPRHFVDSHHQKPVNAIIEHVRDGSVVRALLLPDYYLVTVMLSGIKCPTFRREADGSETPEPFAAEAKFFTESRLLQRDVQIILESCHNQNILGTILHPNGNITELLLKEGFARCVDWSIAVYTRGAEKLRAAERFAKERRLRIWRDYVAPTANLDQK

T2: purified SND1 (16-339aa) protein (UniProt Q7KZF4 16-339)
T2 sequence: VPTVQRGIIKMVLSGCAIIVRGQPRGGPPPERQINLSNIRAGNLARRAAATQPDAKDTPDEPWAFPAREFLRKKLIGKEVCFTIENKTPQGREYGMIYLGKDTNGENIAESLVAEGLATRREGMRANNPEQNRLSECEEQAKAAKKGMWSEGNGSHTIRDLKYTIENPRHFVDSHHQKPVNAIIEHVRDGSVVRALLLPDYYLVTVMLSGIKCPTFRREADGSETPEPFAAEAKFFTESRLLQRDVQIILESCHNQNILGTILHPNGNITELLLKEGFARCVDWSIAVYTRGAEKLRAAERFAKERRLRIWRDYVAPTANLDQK


Key:
TC-SND1 (16-339aa) = molecular target: T1, TC-SND1 (16-339aa); assay: FRET or BRET
[1] = molecular target: T2, purified SND1 (16-339aa) protein; assay: MST

| Binder | binding result (TC-SND1 (16-339aa)) | binding result [1] |
| --- | --- | --- |
| SSADPNSDWNAPAEEWGNWVDE (domain or fragment) [CFP-MTDH (386-407aa)] | binds |  |
| PNSDWNAPAEEWGNW [wild type MTDH (MTDH-WT) minimal peptide] | binds | binds |

Source: article PMC8818087 (Nature cancer, 2021)
